Data as given in US20060063709A1.

Target: NF-kB from mouse cells (nuclear extracts of TPA-stimulated 70Z/3 pre-B cells; also nuclear extracts of the mouse B cell line WEHI 231; cytosolic precursor of 70Z/3) (mouse)

DNA binding activity of NF-kB in EMSA (inhibitor assay): > 90%
reactivation of IkB-inactivated NF-kB DNA binding activity by DOC (EMSA): 66%
Substance: IkB (protein inhibitor of NF-kB) prepared from cytosol of unstimulated mouse 70Z/3 pre-B cells
